Measurements published in patent US20240181022A1, “AMURINS LYSINS, AND LYSIN-ANTIMICROBIAL PEPTIDE (AMP) CONSTRUCTS ACTIVE AGAINST GRAM-NEGATIVE BACTERIA” (priority 2021, published 2024).
Where two headings read alike, the source gives them in different places.

Legend:
B. gladioli = format: cell-based, Burkholderia gladioli; conditions: B. gladioli (15); 2-hour treatment
Method: (§1) The MBEC (after 2-hour treatments) was determined as described in Jones and Wozniak, PsI Produced by Mucoid Pseudomonas aeruginosa Contributes to the Establishment of Biofilms and Immune Evasion, Am. Soc. Microbiol. 2017, 8(3):e00864-17. Meropenem and tobramycin were included as controls and were both poorly active, with MBEC90 values of >256 μg/mL (data not shown).

A. xylosoxidans [1] = conditions: A. xylosoxidans (15); 2-hour treatment
Method: (§2) Biofilms are then washed and treated with e.g., a 2-fold dilution series of the lysin in TSBg at e.g., 37° C. for 24 hours. After treatment, wells are washed, air-dried at e.g., 37° C. and stained with e.g., 0.05% crystal violet for 10 minutes.
(§3) The antibiofilm activity of GN370, AM1, AM2, and AM3 was evaluated against various Gram-negative bacteria prevalent in cystic fibrosis patients, including P. aeruginosa, S. maltophilia, and A. xylosoxidans.
(§4) The MBEC (after 2-hour treatments) was determined as described in Jones and Wozniak, PsI Produced by Mucoid Pseudomonas aeruginosa Contributes to the Establishment of Biofilms and Immune Evasion, Am. […] Microbiol.

S. maltophilia [2] = system: S. maltophilia
Method: as §2, §3, §4

B. multivorans = B. multivorans (15); 2-hour treatment
Method: as §2, §3, §4

P. apista = format: cell-based, Pandoraea apista; conditions: P. apista (15); 2-hour treatment
Method: as §1

A. xylosoxidans [3] = experiment: Time-kill assay in cystic fibrosis patient sputum, A. xylosoxidans; format: cell-based, Achromobacter xylosoxidans
Description: (§5) Sputum from 5 cystic fibrosis patients was pooled. The resulting mixture was not filtered, as it was very dense and not amenable to sterilization by filtration. Sputum is known to be a complex mixture of DNA, carbohydrates, and lipids ([…], 2016). As used herein, the term “sputum” refers to the mucus present in the respiratory tract of an animal, such as a human. Sputum may increase in thickness due to the irritation or infection, including bacterial infection, and in some instances, may be expelled by the animal while coughing. In certain instances, cystic fibrosis may be characterized by the presence of a thick, sticky mucus or sputum present in the lungs of cystic fibrosis patients. The activity of GN370, AM1, AM2, AM3, and meropenem was determined in the sputum using a time-kill assay format as disclosed in Zhang et al., Antimicrobial peptide therapeutics for cystic fibrosis, Antimicrobial Agents Chemother. 2005; 49(7):2921-2927. […] Untreated controls were included in addition to pretreatment plating (t=0) for a baseline CFU determination. Activity was also determined in the absence of sputum for comparison to activity observed in the presence of sputum.

S. maltophilia [4] = system: S. maltophilia; remark: listed apart in the source
A. xylosoxidans [5] = format: cell-based, Achromobacter xylosoxidans
Method: MIC values were determined using a modification of the standard broth microdilution reference method defined by the Clinical and Laboratory Standards Institute (CLSI), CLSL. 2015. Methods for Dilution Antimicrobial Susceptibility Tests for Bacteria That Grow Aerobically; Approved Standard-10th Edition. Clinical and Laboratory Standards Institute, Wayne, PA. The modification was based on the replacement of Mueller Hinton Broth with either CAA media (with and without NaCl) or CAA supplemented with 2.5% human serum. MIC is the minimum concentration of peptide sufficient to suppress at least 80% of the bacterial growth compared to control.
The MICs for were determined as described below using the broth microdilution method for meropenem, GN370, AM1, AM2, and AM3. The results are shown below in Tables 8-12.
The activity of GN370 and AM1 was evaluated against various bacterial isolates, including mucoid and α-hemolytic isolates of P. aeruginosa, MDR isolates, and carbapenem-resistant isolates.

B. cenocepacia = format: cell-based, Burkholderia cenocepacia; conditions: B. cenocepacia (15); 2-hour treatment
Method: as §1

S. maltophilia [6] = experiment: Time-kill assay in cystic fibrosis patient sputum, S. maltophilia; format: cell-based, Stenotrophomonas maltophilia
Description: as §5

[7] = MDR P. aeruginosa isolates (n = 13)
[8] = Pseudomonas aeruginosa, AR Bank, N 67
[9] = Pseudomonas aeruginosa, Weill Cornell, N 55
[10] = Pseudomonas aeruginosa, all isolates, N 122
[11] = all tested isolates, Tables 8-12
[12] = carbapenem-resistant P. aeruginosa isolates (n = 12)
[13] = mucoid P. aeruginosa isolates (n = 11)
[14] = α-hemolytic P. aeruginosa isolates (n = 13)
[15] = S. maltophilia (26), 2-hour treatment
[16] = MDR S. maltophilia isolates (n = 8)
[17] = Stenotrophomonas maltophilia, N 12 (Table 26)
[18] = carbapenem-resistant S. maltophilia isolates (n = 21)
[19] = Achromobacter xylosoxidans, N 11 (Table 26)

B1: GN370: lysin-AMP construct, SEQ ID NO: 149: MIDR, FIRL and NPTH moieties N-terminal to GN202 lysin (protein)
chain: MIDRFIRLNPTHGPRRPRRPGRRAPVRTSQRGIDLIKSFEGLRLSAYQDSVGVWTIGYGTTRGVTRYMTITVEQAERMLSNDIQRFEPELDRLAKVPLNQNQWDALMSFVYNLGAANLASSTLLDLLNKGDYQGAADQFPHWVNAGGKRLDGLVKRRAAERALFLEPLS
modifications: GN370 lysin
P. aeruginosa; [7]
  MIC50: 0.125 µg/mL
  MIC90: 0.5 µg/mL
P. aeruginosa; MDR P. aeruginosa isolates (n = 13), in µg/mL
  MIC Range: 0.0625-0.5
P. aeruginosa; P. aeruginosa ATCC 27853 (head of Table 19)
  MIC: 1 µg/mL
P. aeruginosa; P. aeruginosa PA25
  MIC: PA25 (MIC = 2 μg/mL)
P. aeruginosa; P. aeruginosa clinical and resistant isolates
  MIC90: 2 µg/mL
P. aeruginosa; P. aeruginosa isolates
  MIC50: 0.25 µg/mL
  MIC90: 0.5 µg/mL
P. aeruginosa; P. aeruginosa isolates, in µg/mL
  MIC Range: 0.06-1
P. aeruginosa; P. aeruginosa test organism of the sputum time-kill assay
  MIC: (MIC = 0.5)
P. aeruginosa; [8]
  MIC50: 1 µg/mL
  MIC90: 2 µg/mL
  MIC Range: 0.25 to 2 µg/mL
P. aeruginosa; [9]
  MIC50: 1 µg/mL
  MIC90: 2 µg/mL
  MIC Range: 0.25 to 2 µg/mL
P. aeruginosa; [10]
  MIC50: 1 µg/mL
  MIC90: 2 µg/mL
  MIC Range: 0.25 to 2 µg/mL
P. aeruginosa; XDR P. aeruginosa strain AR-769
  MIC: 2 µg/mL
P. aeruginosa; […], before serial passage
  MIC: 1 µg/mL
P. aeruginosa; [11]
  activity (MIC) against P. aeruginosa isolates: highly active
P. aeruginosa; [12]
  GN370 MIC50: 0.25 µg/mL
  GN370 MIC90: 0.5 µg/mL
P. aeruginosa; carbapenem-resistant P. aeruginosa isolates (n = 12), in µg/mL
  GN370 MIC Range: 0.0625-1
P. aeruginosa; [13]
  MIC50: 0.25 µg/mL
  MIC90: 1 µg/mL
P. aeruginosa; mucoid P. aeruginosa isolates (n = 11), in µg/mL
  MIC Range: 0.0625-1
P. aeruginosa; [14]
  MIC50: 0.25 µg/mL
  MIC90: 1 µg/mL
P. aeruginosa; α-hemolytic P. aeruginosa isolates (n = 13), in µg/mL
  MIC Range: 0.0625-1
B. gladioli
  MBEC50: 256 µg/mL
A. xylosoxidans [1]
  MBEC50: 8 µg/mL
  MBEC90: >256 µg/mL
S. maltophilia [2]; 2-hour treatments
  antibiofilm activity (MBEC) against S. maltophilia: highly active
S. maltophilia [2]; [15]
  MBEC50: 1 µg/mL
  MBEC90: 2 µg/mL
  MBEC Range: 0.064-4 ^ μg/mL
B. multivorans
  MBEC50: 8 µg/mL
  MBEC90: 64 µg/mL
P. apista
  MBEC50: 32 µg/mL
  MBEC90: 64 µg/mL
  MBEC Range: 8 to 64 µg/mL
A. xylosoxidans [3]; 10% CF sputum vs no sputum
  effect of sputum on antibacterial activity: none of GN370, AM1, AM2, and AM3 was inhibited
A. xylosoxidans [3]; absence of sputum, 1 hr
  Log10 CFU/mL of sputum: 3.7 Log10 CFU/mL of sputum
A. xylosoxidans [3]; absence of sputum, 3 hr
  Log10 CFU/mL of sputum: 3.3 Log10 CFU/mL of sputum
A. xylosoxidans [3]; absence of sputum, 24 hr
  Log10 CFU/mL of sputum: 2.3 Log10 CFU/mL of sputum
A. xylosoxidans [3]; presence of 10% sputum, 1 hr
  Log10 CFU/mL of sputum: 3.6 Log10 CFU/mL of sputum
A. xylosoxidans [3]; presence of 10% sputum, 3 hr
  Log10 CFU/mL of sputum: 3.3 Log10 CFU/mL of sputum
A. xylosoxidans [3]; presence of 10% sputum, 24 hr
  Log10 CFU/mL of sputum: 2.3 Log10 CFU/mL of sputum
A. xylosoxidans [3]; time-kill
  CFU reduction by 3 hours: ~2 log10
  CFU reduction by 24 hours: > 3 log10
S. maltophilia [4]; [16]
  MIC50: 0.25 µg/mL
  MIC90: 0.5 µg/mL
S. maltophilia [4]; MDR S. maltophilia isolates (n = 8), in µg/mL
  MIC Range: 0.0625-0.5
S. maltophilia [4]; S. maltophilia isolates
  MIC50: 0.5 µg/mL
  MIC90: 2 µg/mL
S. maltophilia [4]; S. maltophilia isolates, in µg/mL
  MIC Range: 0.03-2
S. maltophilia [4]; S. maltophilia test organism of the sputum time-kill assay
  MIC: GN370 (MIC = 0.5)
S. maltophilia [4]; [17]
  MIC50: 2 µg/mL
  MIC90: 8 µg/mL
  MIC Range: 0.25 to 8 µg/mL
S. maltophilia [4]; XDR S. maltophilia isolate AU29729
  GN370 MIC: 1 µg/mL
S. maltophilia [4]; XDR S. maltophilia isolate AU29873
  GN370 MIC: 0.5 µg/mL
S. maltophilia [4]; XDR S. maltophilia isolate AU30243
  GN370 MIC: 1 µg/mL
S. maltophilia [4]; XDR S. maltophilia isolate AU30793
  GN370 MIC: 1 µg/mL
S. maltophilia [4]; XDR S. maltophilia isolate AU32079
  GN370 MIC: 0.03125 µg/mL
S. maltophilia [4]; XDR S. maltophilia isolate AU33199
  GN370 MIC: 0.0625 µg/mL
S. maltophilia [4]; XDR S. maltophilia isolate AU33860
  GN370 MIC: 2 µg/mL
S. maltophilia [4]; XDR S. maltophilia isolate AU33921
  GN370 MIC: 2 µg/mL
S. maltophilia [4]; XDR S. maltophilia isolate AU34723
  GN370 MIC: 2 µg/mL
S. maltophilia [4]; XDR S. maltophilia isolate AU35419
  GN370 MIC: 2 µg/mL
S. maltophilia [4]; XDR S. maltophilia isolate AU35661
  GN370 MIC: 0.0625 µg/mL
S. maltophilia [4]; XDR S. maltophilia isolate AU36631
  GN370 MIC: 0.5 µg/mL
S. maltophilia [4]; XDR S. maltophilia isolate AU36888
  GN370 MIC: 0.25 µg/mL
S. maltophilia [4]; XDR S. maltophilia isolate AU37239
  GN370 MIC: 1 µg/mL
S. maltophilia [4]; XDR S. maltophilia isolate AU37260
  GN370 MIC: 0.5 µg/mL
S. maltophilia [4]; XDR S. maltophilia isolate AU37689
  GN370 MIC: 0.25 µg/mL
S. maltophilia [4]; XDR S. maltophilia isolate AU37737
  GN370 MIC: 2 µg/mL
S. maltophilia [4]; XDR isolates of S. maltophilia
  MIC50: 1 µg/mL
S. maltophilia [4]; XDR isolates of S. maltophilia, in µg/mL
  MIC Range: 0.03125-2
S. maltophilia [4]; [11]
  activity (MIC) against S. maltophilia isolates: highly active
S. maltophilia [4]; [18]
  GN370 MIC50: 0.5 µg/mL
  GN370 MIC90: 2 µg/mL
S. maltophilia [4]; carbapenem-resistant S. maltophilia isolates (n = 21), in µg/mL
  GN370 MIC Range: 0.03-2
A. xylosoxidans [5]; A. xylosoxidans isolates
  MIC50: 8 µg/mL
  MIC90: > 32 µg/mL
A. xylosoxidans [5]; A. xylosoxidans test organism of the sputum time-kill assay
  MIC: GN370 (MIC = 0.25)
A. xylosoxidans [5]; [19]
  MIC50: >64 µg/mL
  MIC90: >64 µg/mL
B. cenocepacia
  MBEC50: 256 µg/mL
S. maltophilia [6]; 10% CF sputum vs no sputum
  effect of sputum on antibacterial activity: none of GN370, AM1, AM2, and AM3 was inhibited
S. maltophilia [6]; absence of sputum, 1 hr
  Log10 CFU/mL of sputum: 2.3 Log10 CFU/mL of sputum
S. maltophilia [6]; absence of sputum, 3 hr
  Log10 CFU/mL of sputum: 2.3 Log10 CFU/mL of sputum
S. maltophilia [6]; absence of sputum, 24 hr
  Log10 CFU/mL of sputum: 2.3 Log10 CFU/mL of sputum
S. maltophilia [6]; presence of 10% sputum, 1 hr
  Log10 CFU/mL of sputum: 3.48 Log10 CFU/mL of sputum
S. maltophilia [6]; presence of 10% sputum, 3 hr
  Log10 CFU/mL of sputum: 2.3 Log10 CFU/mL of sputum
S. maltophilia [6]; presence of 10% sputum, 24 hr
  Log10 CFU/mL of sputum: 2.3 Log10 CFU/mL of sputum
S. maltophilia [6]; time-kill
  CFU reduction by 3 hours: ~2 log10
  killing by 24 hours: complete killing
